Reference: article doi:10.1101/2025.08.30.673231
Where “and” joins values, the source holds several entries; their conditions need not be identical. Equal values may be shown once.

Experiments:
[1] = target: Pex5 NTD variants (the Pex5 single E57R mutant and the double mutants R45E/R48E and M61A/F64A); test: BLI
[2] = target: 6xHis-GST-tagged Pichia pastoris Pex5 full length (Pichia pastoris) (UniProt P33292); test: BLI
[3] = target: 6xHis-GST-tagged Pichia pastoris Pex5 CTD (residues 259-576) (Pichia pastoris) (UniProt P33292); test: BLI
[4] = target: 6xHis-GST-tagged Pichia pastoris Pex5 NTD (residues 1-276) (Pichia pastoris) (UniProt P33292); test: BLI
[5] = target: Pichia pastoris Pex5 NTD (residues 1-276, tag removed) (Pichia pastoris) (UniProt P33292); test: SEC-SAXS
[6] = target: Pichia pastoris Pex5 CTD (residues 259-576, tag removed) (Pichia pastoris) (UniProt P33292); test: SEC-SAXS
[7] = target: Pichia pastoris Pex5 full length (tag removed) (Pichia pastoris) (UniProt P33292); test: SEC-SAXS
[8] = target: Pichia pastoris Pex5 full length (tag removed) (Pichia pastoris) (UniProt P33292); test: ITC

fold increase in KD against Pex5 NTD WT [1]	Kd [2] [nM]	Kd [3] [nM]	Kd [4] [nM]	stoichiometry N [5]	stoichiometry N [6]	stoichiometry N [7]	stoichiometry N [8]	Substance
6 fold and 8 fold	78	4400	683	1	1	1	1	Pichia pastoris Pex8 (residues 33-713), N-terminally truncated (domain or fragment)
	478							Pichia pastoris Pex8 (ΔPTS1) (domain or fragment)
